What was measured:
[1] = system: Cc1c(O)cccc1C(=O)N[C@@H](CSc1ccccc1)[C@H](O)CN1C[C@H]2CCCC[C@H]2C[C@H]1C(=O)NC(C)(C)C; conditions: Human immunodeficiency virus 1
[2] = system: Cc1c(O)cccc1C(=O)N[C@@H](CSc1ccccc1)[C@H](O)CN1C[C@H]2CCCC[C@H]2C[C@H]1C(=O)NC(C)(C)C; conditions: Human immunodeficiency virus 1; remark: listed apart in the source
[3] = system: Cc1c(O)cccc1C(=O)N[C@@H](CSc1ccccc1)[C@H](O)CN1C[C@H]2CCCC[C@H]2C[C@H]1C(=O)NC(C)(C)C; conditions: Human immunodeficiency virus 1; remark: listed apart in the source
[4] = system: Cc1c(O)cccc1C(=O)N[C@@H](CSc1ccccc1)[C@H](O)CN1C[C@H]2CCCC[C@H]2C[C@H]1C(=O)NC(C)(C)C; conditions: Human immunodeficiency virus 1; remark: listed apart in the source
[5] = system: Cc1c(O)cccc1C(=O)N[C@@H](CSc1ccccc1)[C@H](O)CN1C[C@H]2CCCC[C@H]2C[C@H]1C(=O)NC(C)(C)C; conditions: Human immunodeficiency virus 1; remark: listed apart in the source
[6] = system: Cc1c(O)cccc1C(=O)N[C@@H](CSc1ccccc1)[C@H](O)CN1C[C@H]2CCCC[C@H]2C[C@H]1C(=O)NC(C)(C)C; conditions: Human immunodeficiency virus 1; remark: listed apart in the source
[7] = system: Cc1c(O)cccc1C(=O)N[C@@H](CSc1ccccc1)[C@H](O)CN1C[C@H]2CCCC[C@H]2C[C@H]1C(=O)NC(C)(C)C; conditions: Human immunodeficiency virus 1; remark: listed apart in the source
[8] = system: Cc1c(O)cccc1C(=O)N[C@@H](CSc1ccccc1)[C@H](O)CN1C[C@H]2CCCC[C@H]2C[C@H]1C(=O)NC(C)(C)C; conditions: Human immunodeficiency virus 1; BH10

Human immunodeficiency virus type 1 protease (Human immunodeficiency virus 1), Q72874 A71V,V82T,I84V
Km [1]: 36 µM | kcat [1]: 11 s⁻¹

Human immunodeficiency virus type 1 protease (Human immunodeficiency virus 1), Q72874 D30N,N88D
Km [2]: 18 µM | kcat [2]: 24 s⁻¹

Human immunodeficiency virus type 1 protease (Human immunodeficiency virus 1), Q72874 L10F,L19I,K20R,L33F,E35D,M36I,R41K,F53L,I54V,L63P,H69K,A71V,T74P,I84V,L89M,L90M,I93L
Km [3]: 13 µM | kcat [3]: 10 s⁻¹

Human immunodeficiency virus type 1 protease (Human immunodeficiency virus 1), Q72874 L10I,I15V,E35D,N37S,R41K,I62V,L63P,A71V,G73S,L90M
Km [4]: 8.3 µM | kcat [4]: 12 s⁻¹

Human immunodeficiency virus type 1 protease (Human immunodeficiency virus 1), Q72874 L10I,L24I,L33F,M46L,I54V,L63P,A71V,V82A,I84V
Km [5]: 14 µM | kcat [5]: 6.4 s⁻¹

Human immunodeficiency virus type 1 protease (Human immunodeficiency virus 1), Q72874 M46I,A71V,V82T,I84V
Km [6]: 48 µM | kcat [6]: 14 s⁻¹

Human immunodeficiency virus type 1 protease (Human immunodeficiency virus 1), Q72874 V32I,I47A
Km [7]: 35 µM | kcat [7]: 7.5 s⁻¹

Protease (Human immunodeficiency virus 1), Q9YQ12
Km [8]: 15 µM | kcat [8]: 30 s⁻¹

— ChEMBL document CHEMBL1155806, “Inorganic polyhedral metallacarborane inhibitors of HIV protease: a new approach to overcoming antiviral resistance” (J Med Chem, 2008)
